Results taken from patent publication US7541169B2, “Sulfotransferase sequence variants” (Mayo Foundation for Medical Education and Research, priority 2001, dated 2009).
Substitutions are numbered along the chain they refer to.

B1: Asp60Ala: SULT1C1 polypeptide having an alanine at amino acid residue 60 in place of aspartic acid (protein)
chain: MALTSDLGKQIKLKEVEGTLLQPATVDNWSQIQSFEAKPDDLLICTYPKAGTTWIQEIVAMIEQNGDVEKCQRAIIQHRHPFIEWARPPQPSGVEKAKAMPSPRILKTHLSTQLLPPSFWENNCKFLYVARNAKDCMVSYYHFQRMNHMLPDPGTWEEYFETFINGKVVWGSWFDHVKGWWEMKDRHQILFLFYEDIKRDPKHEIRKVMQFMGKKVDETVLDKIVQETSFEKMKENPMTNRSTVSKSILDQSISSFMRKGTVGDWKNHFTVAQNERFDEIYRRKMEGTSINFCMEL
B2: Phe193Leu: SULT1C1 polypeptide having a leucine residue at amino acid 193 in place of a phenylalanine (protein)
chain: B1 chain with A60D, F193L
B3: Arg73Gln: SULT1C1 polypeptide having a glutamine at amino acid residue 73 in place of an arginine (protein)
chain: B1 chain with A60D, R73Q
B4: Ser255Ala: SULT1C1 polypeptide having an alanine at amino acid 255 in place of a serine (protein)
chain: B1 chain with A60D, S255A
B5: wild type: reference human SULT1C1 polypeptide (SEQ ID NO:2, GenBank U66036), recombinantly expressed in COS-1 cells (protein, listed as Homo sapiens)
chain: B1 chain with A60D
B6: Asp200Val: SULT1C1 polypeptide having a valine at amino acid 200 in place of an aspartic acid (protein)
chain: B1 chain with A60D, D200V
B7: Asp200Val/ Thr239Ala: double variant SULT1C1 polypeptide with a valine at amino acid 200 and an alanine at amino acid 239 (protein)
chain: B1 chain with A60D, D200V, T239A
B8: Thr239Ala: SULT1C1 polypeptide having an alanine at amino acid 239 in place of a threonine (protein)
chain: B1 chain with A60D, T239A
B9: Ser111Phe: SULT1C1 polypeptide having a phenylalanine at amino acid 111 in place of a serine (protein)
chain: B1 chain with A60D, S111F

These molecules were tested on SULT1C1 (assay: SULT1C1 enzyme activity assay: sulfate conjugation of 4-nitrophenol with 35S-PAPS, COS-1 cytosol of recombinant allozymes). Details: apparent Km for PAPS, in the presence of 10 mM 4-NP, six PAPS concentrations 0.0625 μM to 2 μM.
Type: biochemical, human
Procedure: In some embodiments, activity of SULT1C1 polypeptides is altered relative to the reference SULT1C1. […] Other allozymes can have increased activity relative to the reference SULT1C1. Activity of SULT1C1 polypeptides can be assessed in vitro using a sulfate acceptor substrate such as 4-nitrophenol (4-NP, Sigma Chemical Co., St. Louis, Mo.) and a donor sulfate molecule such as PAPS. In general, recombinant SULT1C1 polypeptides can be incubated at 37° C. with 10 mM of sulfate acceptor substrate in a potassium phosphate buffer (5 mM, pH 7.4) and 0.4 μM labeled PAPS (e.g., ^35S-PAPS from New England Nuclear Life Science Products, Inc., Boston Mass.). Reactions can be stopped by precipitating PAPS and SULT1C1 polypeptide (e.g., with barium hydroxide, barium acetate, and zinc sulfate). After centrifugation of the reaction, radioactivity in the supernatant is assessed. SULT1C1 activity is expressed as nmoles of sulfate conjugated product formed per hour of incubation. See, Campbell, N. R. C. et al., Biochem. Pharmacol., 36:1435-1446 (1987).
Other biochemical properties of allozymes, such as apparent Km values, also can be altered relative to the reference SULT1C1. Apparent Km values can be calculated, for example, by using the method of Wilkinson with a computer program written by Cleland. Wilkinson, Biochem. J., 80:324-332 (1961); and Cleland, Nature, 198:463-365 (1963). As described herein, the apparent Km values for PAPS vary 7-fold among the allozymes tested (Asp60Ala, Arg73Gln, Phe193Leu, Asp200Val, Thr239Ala, and Ser255Ala).
COS-1 Cell Expression: Nine different SULT1C1 expression constructs were made using the p91023(B) expression vector. See, Wong et al., Science (1985) 228:810-815, for a description of the p91023(B) vector. Eight of the constructs were designed to express variant SULT1C1 polypeptides, while the remaining construct was designed to express a wild type SULT1C1. All SULT1C1 cDNA sequences used to create the expression constructs were created by site directed mutagenesis using the method described by Ho et al., Gene (1989) 77(l):51-9. Each SULT1C1 cDNA was amplified by PCR and subcloned into the EcoRI restriction site of the eukaryotic expression vector p91023(B). After subcloning, all inserts were sequenced to assure that no spurious nucleotide point mutations had been introduced during the PCR amplifications. […] As a control, a transfection was also performed with “empty” p91023(B), i.e., vector lacking an insert, to make it possible to correct for endogenous COS-1 cell SULT activity. The control plasmid pSV-β-galactosidase (Promega, Madison, Wis.) was cotransfected with each SULT1C1 construct to make it possible to correct for transfection efficiency. Two independent transfections, each consisting of three separate plates, were performed with each of the expression constructs. After 48 hours in culture, the transfected cells were harvested and high speed supernatant (HSS) cytosol preparations were prepared as described by Wood, T. C. et al., Biochem. Biophys. Res. Commun., 198:1119-1127 (1994). Aliquots of these cytosol preparations were stored at −80° C. prior to assay.
Enzyme Assays: β-galactosidase activity in each of the COS-1 HSS preparations was measured with the β-galactosidase Enzyme Assay System (Promega, Madison, Wis.). SULT1C1 enzyme activity was measured with an assay that involves sulfate conjugation of a sulfate acceptor substrate, 4-nitrophenol (4-NP), in the presence of [^35S]-3′-phosphoadenosine-5′-phosphosulfate (PAPS), the sulfate donor for the reaction. See, Campbell, N. R. C. et al., Biochem. Pharmacol., 36:1435-1446 (1987). The HSS preparations of recombinant SULT1C1 variant proteins described above were used for the activity studies without any further purification. The protein concentration of each recombinant protein preparation was determined by the dye-binding method of Bradford with bovine serum albumin (BSA) as a standard. […]

Molecule | Km [nM]
B1 | 4000 ± 470
B2 | 2950 ± 270
B3 | 570 ± 150
B4 | 560 ± 60
B5 | 770 ± 40
B6 | 1200 ± 120
B7 | 1820 ± 140
B8 | 1140 ± 110

Same assay, conditions: recombinant allozyme in COS-1 cytosol; 10 mM 4-NP, 0.4 μM 35S-PAPS, pH 7.4; percentage of wild type SULT1C1 enzyme activity

% WT activity [%] | Molecule
13.9 ± 0.3 | B1
0 | B9
39.3 ± 1.4 | B2
14.5 ± 1.9 | B3
98.9 ± 5.9 | B4
100 | B5
48.1 ± 4.2 | B6
49.3 ± 2.8 | B7
52.6 ± 1.7 | B8

Same assay, conditions: statement in words

activity relative to the reference (wild type) SULT1C1 | Molecule
reduced activity | B1
reduced activity | B9
reduced activity | B2
reduced activity | B3
comparable to the reference SULT1C1 | B4
reduced activity | B6
reduced activity | B7
reduced activity | B8
